Here are results for 7 molecules from US20200256877A1, “Microbiota Sequence Variants Of Tumor-Related Antigenic Epitopes” (ENTEROME S.A., priority 2017, published 2020).

Test [1] concerns splenocytes (IFNγ secretion). Kind of test: ELISPOT-IFNγ on splenocytes of BALB/c and C57BL/6 mice vaccinated with murine microbiota peptides (Example 16). To be noted: for T cell responses in the ELISPOT-IFNγ assay (in words): C57BL/6 mice (H2 Db B2) or BALB/c mice (H2 Ld B5), vaccination + OVA 323-339 + IFA, ex vivo stimulation with bacterial peptide; for T cell responses in the ELISPOT-IFNγ assay against the murine reference epitopes (in words): ex vivo stimulation with H2 Db M2 (C57BL/6) or H2 Ld M5 (BALB/c). The format is in vivo, mouse. As to the method:
Briefly, BALB/c mice and C57BL/6 mice were assigned randomly to two experimental groups for each mouse strain, each group immunized with a specific vaccination peptide (vacc-pAg) combined to a common helper peptide (OVA 323-339 peptide; sequence: ISQAVHAAHAEINEAGR; SEQ ID NO: 164) and Incomplete Freund's Adjuvant (IFA) as shown in Table 23.
The animals were immunized on day 0 (d0) with a prime injection, and on d14 with a boost injection. Each mouse was injected s.c. at tail base with 100 μL of an oil-based emulsion that contained: • 100 μg of vacc-pAg (25 μL of 4 mg/mL stock per mouse); • 150 μg of h-pAg (15 μL of 10 mg/mL stock per mouse); • 10 μL of PBS to reach a total volume of 50 μL (per mouse); • Incomplete Freund's Adjuvant (IFA) added at 1:1 (v:v) ratio (50 μL per mouse).
Seven days after the boost injection (i.e. on d21), the animals were euthanized and the spleen was harvested. Splenocytes were prepared by mechanical disruption of the organ followed by 70 μm-filtering and Ficoll density gradient purification. Spleen weight, splenocyte number and viability were immediately assessed (Table 24).
The splenocytes were used in an ELISPOT-IFNγ assay (Table X). Experimental conditions were repeated in quadruplets, using 2*10^5 total splenocytes per well, and were cultured in presence of vacc-pAg (10 μM), mice peptide homolog, positive control (1 ng/ml of Phorbol 12-myristate 13-acetate (PMA) and 500 ng/ml of Ionomycin) or medium-only to assess for their capacity to secrete IFNγ.
The commercial ELISPOT-IFNγ kit (Diaclone Kit Mujrine IFNγ ELISpot) was used following the manufacturer's instructions, and the assay was performed after about 16 h of incubation.
Spots were counted on a Grand ImmunoSpor S6 Ultimate UV Image Analyzer interfaced to the ImmunoSpot 5.4 software (CTL-Europe). Data plotting and statistical analysis were performed with the Prism-5 software (GraphPad Software Inc.).

Another test has as its target T1, HLA-A*0201 (Homo sapiens, UniProt P04439, D140Y/D185E/D98H/E176V/E277Q/G131W/G231S/I119V/I121R/I166T/I218V/L300P/L318F/N151K/N90K/P208A/P217A/Q86G/Q94H/R138H/R169H/T345S).
T1 construct: human tumoral cell T2 which expresses the HLA-A*0201 molecule; endogenous in cells; host or cells: T2 cells (human, TAP1/2 negative)
Kind of test: In vitro affinity of peptides to HLA-A*0201 on T2 cell line (FACS, anti-HLA-A2 labeling). The format is cell-based. Conditions: T2 cells; for Mean fluorescence intensity: 16 hours. From the text:
A method for in vitro testing is well-known to the skilled person. For example, the skilled person may use the experimental protocol as validated for peptides presented by HLA-A*0201 in Tourdot et al., A general strategy to enhance immunogenicity of low-affinity HLA-A2.1-associated peptides: implication in the identification of cryptic tumor epitopes. Eur J Immunol. 2000 December; 30(12):3411-21. In this context, a reference peptide, such as HIV pol 589-597, may be additionally used in the test. This enables calculation of the in vitro affinity relative to the binding observed with the reference peptide, e.g. by the following equation:
Relative affinity=concentration of each peptide inducing 20% of expression of HLA-A*0201/concentration of the reference peptide inducing 20% of expression of HLA-A*0201
(where 100% is the level of HLA-A*0201 expression detected with the reference peptide, e.g. HIV pol 589-597, for example used at a 100 μM concentration).
The experimental protocol is similar to the one that was validated for peptides presented by the HLA-A*0201 (Tourdot et al., A general strategy to enhance immunogenicity of low-affinity HLA-A2.1-associated peptides: implication in the identification of cryptic tumor epitopes. Eur J Immunol. 2000 December; 30(12):3411-21). Affinity measurement of the peptides is achieved with the human tumoral cell T2 which expresses the HLA-A*0201 molecule, but which is TAP1/2 negative and incapable of presenting endogenous peptides.
T2 cells (2.10^5 cells per well) were incubated with decreasing concentrations of peptides from 100 μM to 0.1 μM in a AIMV medium supplemented with 100 ng/μl of human β2m at 37° C. for 16 hours. Cells were then washed two times and marked with the anti-HLA-A2 antibody coupled to PE (clone BB7.2, BD Pharmagen).
The analysis was performed by FACS (Guava Easy Cyte). For each peptide concentration, the geometric mean of the labeling associated with the peptide of interest was subtracted from background noise and reported as a percentage of the geometric mean of the […] labeling obtained for the reference peptide HIV pol 589-597 at a concentration of 100 μM. The relative affinity is then determined as follows:
relative affinity=concentration of each peptide inducing 20% of expression of HLA-A*0201/concentration of the reference peptide inducing 20% of expression of HLA-A*0201.
The experimental protocol, materials and methods correspond to those outlined in Example 4, with the only difference that the above mentioned antigenic peptides were used.
T2 cells (2.10^5 cells per well) were incubated with decreasing concentrations of peptides from 100 μM to 0.1 μM in a AIMV medium supplemented with 100 ng/μl of human β2 m at 37° C. for 16 hours. Cells were then washed two times and marked with the anti-HLA-A2 antibody coupled to PE (clone BB7.2, BD Pharmagen).

Test [2] has as its target T2, HLA-A*0201 molecule on human T2 cells (human).
T2 construct: MHC class I molecule on T2 cells; also called HLA.A2.01
Kind of test: T2 cell HLA-A*0201 binding assay, flow cytometry.
Description: T2 cells (2.10⁵ cells per well) were incubated with decreasing concentrations of peptides from 100 μM to 0.1 μM in a AIMV medium supplemented with 100 ng/μl of human β2m at 37° C. for 16 hours.
The analysis was performed by FACS (Guava Easy Cyte). […] The relative affinity is then determined as follows:

As to “GAMLVGAVL (Sequence variant) [H2 Db B2, bacterial peptide from microbiota of C57BL/6 mice, variant of Stra6 peptide]”, in test [1], the “T cell responses in the ELISPOT-IFNγ assay (in words)” value is listed as “induced improved T cell responses” and the “T cell responses in the ELISPOT-IFNγ assay against the murine reference epitopes (in words)” value was “also induced improved T cell responses”. Take “KPSVFLLTL (Sequence variant) [H2 Ld B5, bacterial peptide from microbiota of BALB/c mice, variant of Phtf1 peptide]”: in test [1], the “T cell responses in the ELISPOT-IFNγ assay (in words)” value is on record as “induced improved T cell responses” and the “T cell responses in the ELISPOT-IFNγ assay against the murine reference epitopes (in words)” value was “also induced improved T cell responses”. On to “LMDLSTTPL (listed as Homo sapiens) [SEQ ID NO: 59, reference compound]”, for which the “Concentration inducing 20% of expression of the HLA-A*0201” value in the test with HLA-A*0201 is 12.6 µM. In the test with HLA-A*0201 (in vitro), the “Binding to HLA-A*0201 (in words)” value is listed as “bind”. The Mean fluorescence intensity with HLA-A*0201 (peptide at 3 μM) is listed as 0.9; in the test with HLA-A*0201 (peptide at 25 μM), 65.4; with HLA-A*0201 (peptide at 100 μM) it was 77.6.

B1: human IL13RA2 reference epitope IL13RA2-H (SEQ ID NO: 1, WLPFGFILI) (peptide)
peptide: WLPFGFILI
notes: 9-mer peptide derived from human IL13RA2; also called IL13RA2-H pAg
Consider B1, for which, in test [2], the “concentration inducing 20% of expression of HLA-A*0201” value was found to be 100 µM. In the case of LMDLSTTEV (also called FOXM1-B2 pAg) [bacterial peptide FOXM1-B2 (SEQ ID NO: 75, LMDLSTTEV)], the “concentration inducing 20% of expression of HLA-A*0201” value in test [2] came out at 6.7 µM.

B2: human FOXM1 reference epitope FOXM1-H2 (SEQ ID NO: 59, LMDLSTTPL) (peptide)
peptide: LMDLSTTPL
notes: 9-mer peptide derived from human FOXM1; also called FOXM1-H2 pAg
In the case of B2, the “concentration inducing 20% of expression of HLA-A*0201” value in test [2] was 12.6 µM.

B3: bacterial peptide IL13RA2-B (SEQ ID NO: 18, FLPFGFILV) (peptide)
peptide: FLPFGFILV
notes: 9-mer synthetic peptide; also called IL13RA2-B pAg
Turning to B3, in test [2], the “concentration inducing 20% of expression of HLA-A*0201” value came out at 4.4 µM.
